Experimental data as given in publication PMC5862942, “JMJD5 is a human arginyl C-3 hydroxylase” (Nature Communications, 2018).
Where no end group is shown, it is not given here.

Molecular target: N-terminally truncated JMJD5 (Jumonji-C domain-containing protein 5), wild type (human, UniProt Q8N371 183-416)
Assay: cell-based or functional assay

Sequence of N-terminally truncated JMJD5 (Jumonji-C domain-containing protein 5), wild type (Q8N371 other isoform, or with tags, fused parts or gaps): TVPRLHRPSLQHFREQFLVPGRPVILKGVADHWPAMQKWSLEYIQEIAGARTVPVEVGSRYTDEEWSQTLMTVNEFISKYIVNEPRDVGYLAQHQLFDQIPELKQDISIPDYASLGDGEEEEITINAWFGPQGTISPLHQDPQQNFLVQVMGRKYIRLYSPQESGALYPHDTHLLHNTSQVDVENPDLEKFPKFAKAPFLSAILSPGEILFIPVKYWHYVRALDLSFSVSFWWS

apparent Km of the RPS6 129-144 peptide in JMJD5-catalysed Arg137 hydroxylation (MALDI-MS-based assay, 37 °C): 60.4 µM
Binder: VPRRLGPKRASRIRKL-NH2 [40S ribosomal protein S6 (RPS6) peptide, residues 129-144]
